The sequences below were run on Escherichia coli TOP10 (assay: shrunken log2 fold change of peptide-encoding DNA abundance (4.5 h post-induction vs induction); higher = less antimicrobial activity (less host growth inhibition)). Conditions: time post-induction: 4.5 h; library: site-saturation at positions 5, 18, 19, 20.
In the case of RRIRFRPPRLPRPRPRPPRYPRP, the “shrunken log2 fold change” value is reported as 0.246. For RRIRHRPPRLPRPRPRPDSWPRP, the “shrunken log2 fold change” value was -0.0468. With RRIRKRPPRLPRPRPRPAMEPRP the “shrunken log2 fold change” value was 0.0841. For RRIRGRPPRLPRPRPRPMMEPRP, the “shrunken log2 fold change” value was 0.372. In the case of RRIRGRPPRLPRPRPRPCVEPRP, the “shrunken log2 fold change” value is reported as 0.953. For RRIRFRPPRLPRPRPRPNTVPRP, the “shrunken log2 fold change” value was -0.363. With RRIRERPPRLPRPRPRPCTVPRP the “shrunken log2 fold change” value was -0.0354. RRIRIRPPRLPRPRPRPWYSPRP was tested, and the “shrunken log2 fold change” value was -0.821. RRIRNRPPRLPRPRPRPQCTPRP was tested, and the “shrunken log2 fold change” value was -0.123. RRIRPRPPRLPRPRPRPYQRPRP was tested, and the “shrunken log2 fold change” value was 0.0369. In the case of RRIRYRPPRLPRPRPRPIADPRP, the “shrunken log2 fold change” value is reported as 0.0616. RRIRYRPPRLPRPRPRPVVVPRP was tested, and the “shrunken log2 fold change” value was 0.00571. In the case of RRIRDRPPRLPRPRPRPRVHPRP, the “shrunken log2 fold change” value is reported as -0.0969. In the case of RRIRRRPPRLPRPRPRPKPCPRP, the “shrunken log2 fold change” value is reported as 0.126. For RRIRGRPPRLPRPRPRPKNLPRP, the “shrunken log2 fold change” value was 0.121. In the case of RRIRHRPPRLPRPRPRPRFNPRP, the “shrunken log2 fold change” value is reported as -0.316. RRIRPRPPRLPRPRPRPVVLPRP was tested, and the “shrunken log2 fold change” value was 0.00791. RRIRPRPPRLPRPRPRPRTWPRP was tested, and the “shrunken log2 fold change” value was 0.537. For RRIRVRPPRLPRPRPRPNTMPRP, the “shrunken log2 fold change” value was -0.293. RRIRERPPRLPRPRPRPEEFPRP was tested, and the “shrunken log2 fold change” value was -0.0217. For RRIRVRPPRLPRPRPRPDMHPRP, the “shrunken log2 fold change” value was -0.107. For RRIRQRPPRLPRPRPRPSWNPRP, the “shrunken log2 fold change” value was -0.238. RRIRSRPPRLPRPRPRPCCHPRP was tested, and the “shrunken log2 fold change” value was -0.0953. With RRIRARPPRLPRPRPRPAWAPRP the “shrunken log2 fold change” value was 0.48. For RRIRCRPPRLPRPRPRPDHIPRP, the “shrunken log2 fold change” value was -0.489. In the case of RRIRLRPPRLPRPRPRPNNNPRP, the “shrunken log2 fold change” value is reported as -0.673. In the case of RRIRTRPPRLPRPRPRPNTLPRP, the “shrunken log2 fold change” value is reported as -0.377. For RRIRSRPPRLPRPRPRPSAMPRP, the “shrunken log2 fold change” value was 0.292. RRIRSRPPRLPRPRPRPFDYPRP was tested, and the “shrunken log2 fold change” value was -0.0792. In the case of RRIRERPPRLPRPRPRPHKMPRP, the “shrunken log2 fold change” value is reported as -0.701. In the case of RRIRIRPPRLPRPRPRPILGPRP, the “shrunken log2 fold change” value is reported as -0.0266. For RRIRPRPPRLPRPRPRPIFTPRP, the “shrunken log2 fold change” value was -0.0736. In the case of RRIRERPPRLPRPRPRPNFDPRP, the “shrunken log2 fold change” value is reported as -0.145. For RRIRMRPPRLPRPRPRPDGQPRP, the “shrunken log2 fold change” value was 1.15. For RRIRPRPPRLPRPRPRPYGWPRP, the “shrunken log2 fold change” value was -0.248. RRIRCRPPRLPRPRPRPEMTPRP was tested, and the “shrunken log2 fold change” value was 0.517. In the case of RRIRVRPPRLPRPRPRPLCGPRP, the “shrunken log2 fold change” value is reported as 0.0478. With RRIRERPPRLPRPRPRPYRMPRP the “shrunken log2 fold change” value was -0.113. In the case of RRIRYRPPRLPRPRPRPFCLPRP, the “shrunken log2 fold change” value is reported as -1.22. RRIRSRPPRLPRPRPRPRDSPRP was tested, and the “shrunken log2 fold change” value was -0.158. For RRIRVRPPRLPRPRPRPGKVPRP, the “shrunken log2 fold change” value was -0.272. In the case of RRIRARPPRLPRPRPRPAYGPRP, the “shrunken log2 fold change” value is reported as 0.0552. In the case of RRIRSRPPRLPRPRPRPWIFPRP, the “shrunken log2 fold change” value is reported as -0.14. RRIRWRPPRLPRPRPRPCRRPRP was tested, and the “shrunken log2 fold change” value was 0.0574. In the case of RRIRLRPPRLPRPRPRPMGGPRP, the “shrunken log2 fold change” value is reported as 0.26. For RRIRKRPPRLPRPRPRPHDRPRP, the “shrunken log2 fold change” value was 0.29. In the case of RRIRSRPPRLPRPRPRPRAWPRP, the “shrunken log2 fold change” value is reported as 0.0718. RRIRDRPPRLPRPRPRPATHPRP was tested, and the “shrunken log2 fold change” value was 0.335. In the case of RRIRFRPPRLPRPRPRPIRKPRP, the “shrunken log2 fold change” value is reported as -0.0472. In the case of RRIRLRPPRLPRPRPRPNCYPRP, the “shrunken log2 fold change” value is reported as -0.422. In the case of RRIRMRPPRLPRPRPRPCCQPRP, the “shrunken log2 fold change” value is reported as 0.212. For RRIRYRPPRLPRPRPRPYTVPRP, the “shrunken log2 fold change” value was -0.00544. In the case of RRIRERPPRLPRPRPRPVQCPRP, the “shrunken log2 fold change” value is reported as 0.00166. For RRIRKRPPRLPRPRPRPLDLPRP, the “shrunken log2 fold change” value was -0.203. For RRIRYRPPRLPRPRPRPPGSPRP, the “shrunken log2 fold change” value was 0.0125. In the case of RRIRYRPPRLPRPRPRPNPPPRP, the “shrunken log2 fold change” value is reported as 0.0395. RRIRGRPPRLPRPRPRPPNVPRP was tested, and the “shrunken log2 fold change” value was 0.431. In the case of RRIRDRPPRLPRPRPRPSRRPRP, the “shrunken log2 fold change” value is reported as 0.146. In the case of RRIRPRPPRLPRPRPRPPETPRP, the “shrunken log2 fold change” value is reported as 0.407. For RRIRIRPPRLPRPRPRPLLTPRP, the “shrunken log2 fold change” value was -0.156. In the case of RRIRQRPPRLPRPRPRPPDSPRP, the “shrunken log2 fold change” value is reported as 0.377. In the case of RRIRCRPPRLPRPRPRPCHFPRP, the “shrunken log2 fold change” value is reported as -0.273. With RRIRERPPRLPRPRPRPTQKPRP the “shrunken log2 fold change” value was 0.337. For RRIRERPPRLPRPRPRPIMRPRP, the “shrunken log2 fold change” value was -0.102. In the case of RRIRCRPPRLPRPRPRPHKLPRP, the “shrunken log2 fold change” value is reported as -0.436. In the case of RRIRYRPPRLPRPRPRPPSTPRP, the “shrunken log2 fold change” value is reported as -0.294. For RRIRFRPPRLPRPRPRPSCQPRP, the “shrunken log2 fold change” value was -0.245. For RRIRGRPPRLPRPRPRPILVPRP, the “shrunken log2 fold change” value was 0.133. For RRIRARPPRLPRPRPRPSDHPRP, the “shrunken log2 fold change” value was -0.134. RRIRFRPPRLPRPRPRPDCRPRP was tested, and the “shrunken log2 fold change” value was -0.309. With RRIRERPPRLPRPRPRPYKKPRP the “shrunken log2 fold change” value was 0.0359. RRIRWRPPRLPRPRPRPPKAPRP was tested, and the “shrunken log2 fold change” value was -0.0568. In the case of RRIRERPPRLPRPRPRPYVPPRP, the “shrunken log2 fold change” value is reported as -0.0961. RRIRLRPPRLPRPRPRPFEMPRP was tested, and the “shrunken log2 fold change” value was -0.00193. In the case of RRIRVRPPRLPRPRPRPMWEPRP, the “shrunken log2 fold change” value is reported as 0.0553. In the case of RRIRERPPRLPRPRPRPKDVPRP, the “shrunken log2 fold change” value is reported as -0.152. With RRIRLRPPRLPRPRPRPKRTPRP the “shrunken log2 fold change” value was 0.21. With RRIRRRPPRLPRPRPRPHYHPRP the “shrunken log2 fold change” value was -0.35. With RRIRLRPPRLPRPRPRPGCFPRP the “shrunken log2 fold change” value was 0.269. In the case of RRIRQRPPRLPRPRPRPIKLPRP, the “shrunken log2 fold change” value is reported as -0.0569. For RRIRTRPPRLPRPRPRPWMPPRP, the “shrunken log2 fold change” value was -0.247. In the case of RRIRYRPPRLPRPRPRPRDMPRP, the “shrunken log2 fold change” value is reported as -0.339. For RRIRIRPPRLPRPRPRPPELPRP, the “shrunken log2 fold change” value was -0.123. RRIRQRPPRLPRPRPRPQSDPRP was tested, and the “shrunken log2 fold change” value was -0.00542. RRIRPRPPRLPRPRPRPTLYPRP was tested, and the “shrunken log2 fold change” value was 0.221. In the case of RRIRQRPPRLPRPRPRPDQCPRP, the “shrunken log2 fold change” value is reported as -0.0972. In the case of RRIRLRPPRLPRPRPRPATEPRP, the “shrunken log2 fold change” value is reported as 0.149. With RRIRTRPPRLPRPRPRPRSIPRP the “shrunken log2 fold change” value was -0.122. In the case of RRIRDRPPRLPRPRPRPQARPRP, the “shrunken log2 fold change” value is reported as 1.05. For RRIRWRPPRLPRPRPRPGINPRP, the “shrunken log2 fold change” value was 0.0653. In the case of RRIRNRPPRLPRPRPRPFLTPRP, the “shrunken log2 fold change” value is reported as -0.505. For RRIRWRPPRLPRPRPRPHIIPRP, the “shrunken log2 fold change” value was -0.441. With RRIRNRPPRLPRPRPRPYTQPRP the “shrunken log2 fold change” value was -0.798. With RRIRGRPPRLPRPRPRPRFVPRP the “shrunken log2 fold change” value was 0.467. With RRIRLRPPRLPRPRPRPDTGPRP the “shrunken log2 fold change” value was -0.243. For RRIRERPPRLPRPRPRPYGDPRP, the “shrunken log2 fold change” value was -0.218. For RRIRRRPPRLPRPRPRPRKRPRP, the “shrunken log2 fold change” value was 0.859. For RRIRIRPPRLPRPRPRPRGFPRP, the “shrunken log2 fold change” value was 0.199. For RRIRGRPPRLPRPRPRPSMLPRP, the “shrunken log2 fold change” value was 0.58. For RRIRRRPPRLPRPRPRPCEWPRP, the “shrunken log2 fold change” value was -0.0585. For RRIRNRPPRLPRPRPRPKHTPRP, the “shrunken log2 fold change” value was -0.0718. For RRIRVRPPRLPRPRPRPTDLPRP, the “shrunken log2 fold change” value was -0.101. RRIRTRPPRLPRPRPRPTWFPRP was tested, and the “shrunken log2 fold change” value was -0.0683. With RRIRARPPRLPRPRPRPQQKPRP the “shrunken log2 fold change” value was 0.153. In the case of RRIRGRPPRLPRPRPRPAYFPRP, the “shrunken log2 fold change” value is reported as 0.235. RRIRNRPPRLPRPRPRPFAMPRP was tested, and the “shrunken log2 fold change” value was -0.177. With RRIRSRPPRLPRPRPRPIRGPRP the “shrunken log2 fold change” value was -0.0109. In the case of RRIRARPPRLPRPRPRPIRCPRP, the “shrunken log2 fold change” value is reported as 0.188. With RRIRHRPPRLPRPRPRPKFMPRP the “shrunken log2 fold change” value was -0.497. RRIRRRPPRLPRPRPRPPGPPRP was tested, and the “shrunken log2 fold change” value was 0.8. RRIRYRPPRLPRPRPRPRPAPRP was tested, and the “shrunken log2 fold change” value was 0.393. RRIRYRPPRLPRPRPRPKSTPRP was tested, and the “shrunken log2 fold change” value was -0.634. For RRIRVRPPRLPRPRPRPYRGPRP, the “shrunken log2 fold change” value was -0.402. With RRIRYRPPRLPRPRPRPKIPPRP the “shrunken log2 fold change” value was -0.21. RRIRDRPPRLPRPRPRPKCVPRP was tested, and the “shrunken log2 fold change” value was 0.104. For RRIRLRPPRLPRPRPRPQFPPRP, the “shrunken log2 fold change” value was 0.172. For RRIRERPPRLPRPRPRPPTFPRP, the “shrunken log2 fold change” value was -0.767. For RRIRPRPPRLPRPRPRPMSTPRP, the “shrunken log2 fold change” value was -0.229. For RRIRPRPPRLPRPRPRPAKYPRP, the “shrunken log2 fold change” value was -0.317. In the case of RRIRSRPPRLPRPRPRPKHLPRP, the “shrunken log2 fold change” value is reported as -0.466. RRIRFRPPRLPRPRPRPVEEPRP was tested, and the “shrunken log2 fold change” value was -0.177. In the case of RRIRMRPPRLPRPRPRPPFRPRP, the “shrunken log2 fold change” value is reported as 0.693. For RRIRWRPPRLPRPRPRPMKCPRP, the “shrunken log2 fold change” value was -0.0018. For RRIRGRPPRLPRPRPRPMPGPRP, the “shrunken log2 fold change” value was 0.479. In the case of RRIRSRPPRLPRPRPRPMVFPRP, the “shrunken log2 fold change” value is reported as 0.104.
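Further: peptides expressed intracellularly from a pBAD plasmid library in pooled LB shake-flask culture, induced with 0.3% L-arabinose, DNA abundance read by NGS, three biological replicates, DESeq2 with apeglm shrinkage.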
